Source: article PMC10204903 (Cell, 2022)

Key:
Assay in all cases: ELISA
SUDV GP ectodomain = SUDV GP ectodomain (Sudan virus (SUDV), UniProt Q7T9D9)
BDBV GP ectodomain = BDBV GP ectodomain (Bundibugyo virus; strain of the bought …, UniProt B8XCN0)
[1] = target: EBOV soluble glycoprotein (sGP) (Ebola virus (EBOV), UniProt P60170)

B1: mAb 9.20.1C3 (antibody, V domains shown)
VH: QVQLVQSGAEVKKPGSSVKVACKVSGGTFSSYTISWVRQAPGQGLEWMGGIIPSFGVGHYSQKFRDRVTLTADKSTTTAFLELSSVRSEDTALYYCAILGTFNWKSGGNYFGPWGQGTLVTVSS
VL: DIVLTQSPDSLAASLGERATISCKSSHSVLYSSNNKDFFAWYQQKPGQPPKLLISWASTRESGVPVRFNGGGSGTHFTLTISSLQAEDVAVYYCQQYFSSPITFGQGTRLEIK
SUDV GP ectodomain
  binding result: binds
BDBV GP ectodomain
  binding result: binds
[1]
  binding result: no binding

B2: mAb 5.24.1C11 (antibody, V domains shown)
VH: QVQLVQSGAEVKKPGASVKVSCRTSGYTFSSYNIHWVRQAPGQGLEWMGVINPYGRSTTLYARRFRDRVTMTRDTSTSTVYMELSSLRSEDTAVYFCGRLYSGAPYGLDVWGQGSTVTVSS
VL: DIVMTQSPLSLPVTPGEPASISCRSSQSLLHSNGYNYVDWYLQKPGQSPQLLIYLGSSRASGVPDRFSGSGSGTDFTLKISRVETEDVGIYYCMQGLQTPLTFGGGTKVEIK
SUDV GP ectodomain
  binding result: binds
BDBV GP ectodomain
  binding result: binds
[1]
  binding result: no binding
